Experimental data reported in article PMC8622909 (Pharmaceuticals, 2021).

Key:
[1] = target: T1, UGT1A9 (Homo sapiens, UniProt O60656); test: inhibition of PTU glucuronidation by recombinant UGT1A9, HPLC-MS/MS; format: biochemical; settings: read-out: Magnolol IC50
T1 construct: human recombinant UGT1A9
T1 sequence (O60656 26-530): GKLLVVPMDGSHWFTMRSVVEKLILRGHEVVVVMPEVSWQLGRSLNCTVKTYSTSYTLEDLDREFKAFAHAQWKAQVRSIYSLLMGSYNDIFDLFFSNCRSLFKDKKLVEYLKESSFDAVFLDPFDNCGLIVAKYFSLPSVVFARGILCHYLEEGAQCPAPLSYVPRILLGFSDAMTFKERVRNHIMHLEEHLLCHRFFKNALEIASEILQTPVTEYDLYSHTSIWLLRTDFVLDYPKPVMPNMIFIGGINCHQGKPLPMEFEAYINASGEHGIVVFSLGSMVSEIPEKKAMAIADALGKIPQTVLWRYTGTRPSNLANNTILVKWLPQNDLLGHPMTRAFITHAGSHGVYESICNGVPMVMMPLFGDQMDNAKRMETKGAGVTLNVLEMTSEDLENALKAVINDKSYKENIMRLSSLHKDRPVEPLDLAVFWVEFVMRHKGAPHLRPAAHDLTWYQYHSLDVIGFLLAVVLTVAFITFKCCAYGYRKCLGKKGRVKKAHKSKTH

[2] = substrate: CCCc1cc(=O)[nH]c(=S)[nH]1; test: purified protein; settings: UDPGA

C=CCc1ccc(O)c(-c2cc(CC=C)ccc2O)c1 [magnolol] gave an IC50 [1] of 1160 nM.

B1: UGT1A9 (Homo sapiens) (protein)
chain: GKLLVVPMDGSHWFTMRSVVEKLILRGHEVVVVMPEVSWQLGRSLNCTVKTYSTSYTLEDLDREFKAFAHAQWKAQVRSIYSLLMGSYNDIFDLFFSNCRSLFKDKKLVEYLKESSFDAVFLDPFDNCGLIVAKYFSLPSVVFARGILCHYLEEGAQCPAPLSYVPRILLGFSDAMTFKERVRNHIMHLEEHLLCHRFFKNALEIASEILQTPVTEYDLYSHTSIWLLRTDFVLDYPKPVMPNMIFIGGINCHQGKPLPMEFEAYINASGEHGIVVFSLGSMVSEIPEKKAMAIADALGKIPQTVLWRYTGTRPSNLANNTILVKWLPQNDLLGHPMTRAFITHAGSHGVYESICNGVPMVMMPLFGDQMDNAKRMETKGAGVTLNVLEMTSEDLENALKAVINDKSYKENIMRLSSLHKDRPVEPLDLAVFWVEFVMRHKGAPHLRPAAHDLTWYQYHSLDVIGFLLAVVLTVAFITFKCCAYGYRKCLGKKGRVKKAHKSKTH
In the case of B1, the Km [2] is reported as 15.27 ± 7.73 µM and the Vmax [2] is reported as 0.352 µmol/min/mg.
